The series concerns the molecule itself. The series can be described thus: self-assembly; CsCl gradient and TEM.

B1: HPV16 L1 protein of clone P114/16/11 (114/K) (other)
chain: MSLWLPSEATVYLPPVPVSKVVSTDEYVARTNIYYHAGTSRLLAVGHPYFPIKKPNNNKILVPKVSGLQYRVFRIHLPDPNKFGFPDTSFYNPDTQRLVWACVGVEVGRGQPLGVGISGHPLLNKLDDTENASAYAANAGVDNRECISMDYKQTQLCLIGCKPPIGEHWGKGSPCTNVAVNPGDCPPLELINTVIQDGDMVDTGFGAMDFTTLQANKSEVPLDICTSICKYPDYIKMVSEPYGDSLFFYLRREQMFVRHLFNRAGTVGENVPDDLYIKGSGSTANLASSNYFPTPSGSMVTSDAQIFNKPYWLQRAQGHNNGICWGNQLFVTVVDTTRSTNMSLCAAISTSETTYKNTNFKEYLRHGEEYDLQFIFQLCKITLTADVMTYIHSMNSTILEDWNFGLQPPPGGTLEDTYRFVTSQAIACQKHTPPAPKEDPLKKYTFWEVNLKEKFSADLDQFPLGRKFLLQAGLKAKPKFTLGKRKATPTTSSTSTTAKRKKRKL
notes: Differs from prototype L1 only by His202Asp; Expressed in Sf-9 insect cells; self-assembles into VLP; also called 114K-L1; 114/K-L1
For the protein B1, the binding result was “binds”.

B2: HPV16 L1 protein of clone P114/16/2 (114/B) (other)
chain: MSLWLPSEATVYLPPVPVSKVVSTDEYVARTNIYYHAGTSRLLAVGHPYFPIKKPNNNKILVPKVSGLQYRVFRIHLPDPNKFGFPDTSFYNPDTQRLVWACVGVEVGRGQPLGVGISGHPLLNKLDDTENASAYAANAGVDNRECISMDYKQTQLCLIGCKPPIGEHWGKGSPCTNVAVNPGDCPPLELINTIIQDGDMVDTGFGAMDFTTLQANKSEVPLDICTSICKYPDYIKMVSEPYGDSLFFYLRREQMFVRHLFNRAGAVGENVPDDLYIKGSGSTANLASSNYFPTPSGSMVTSDAQIFNKPYWLQRAQGHNNGICWGNQLFVTVVDTTRSTNMSLCAAISTSETTYKNTNFKEYLRHGEEYDLQFIFQLCKITLTADVMTYIHSMNSTILEDWNFGLQPPPGGTLEDTYRFVTSQAIACQKHTPPAPKEDPLKKYTFWEVNLKEKFSADLDQFPLGRKFLLQAGLKAKPKFTLGKRKATPTTSSTSTTAKRKKRKL
notes: Differs from prototype L1 by Val194Ile, His202Asp and Thr266Ala; Expressed in Sf-9 insect cells; self-assembles into VLP
As for B2, the binding result is listed as “binds”.

The values above are taken from patent US20020168372A1 (published 2002).
